These results are taken from patent publication US20220098591, “STEM-LOOP COMPOSITIONS AND METHODS FOR INHIBITING VASCULAR ENDOTHELIAL GROWTN FACTOR” (DRIVE THERAPEUTICS LLC, published 2022).

Some results are limits rather than exact numbers.

In series [1] the target is T1, VEGF-A121 (Homo sapiens, UniProt P15692 SEQ:1-121). The experiment in a line: competition; TR-FRET. Particulars: tags: glycan-biotinylated for SPR/FRET/AlphaLISA; Acro BioSystems, Biolegend; chain copies: 2 (stated). On the procedure:
(§1) Briefly, for competition TR-FRET, 2-fold dilutions of thermally equilibrated aptamers were made in TR-FRET Buffer (50 mM MOPS, pH 7.4, 125 mM NaCl, 5 mM KCl, 50 μM CHAPS, 0.1 mg/mL BSA, 1 mM CaCl₂, and 1 mM MgCl₂). 5 μL of aptamer or control solution was added to a 15 μL mix of glycan biotinylated […] (5 nM final), ALEXA FLUOR® 647-labeled Aptamer (30 nM final), and Streptavidin-Eu (Perkin Elmer; 2.5 nM final) in a black wall low volume 384 well plate (Greiner). For control, 5 μl of 1000-fold excess of unlabeled parent aptamer or 5 μl TR-FRET buffer alone was added to the mix of ALEXA FLUOR® 647-labeled aptamer, biotin-VEGF-A, and Streptavidin-Eu. The plate was covered with a plate seal and subsequently incubated in the dark for 1 hour at room temperature. The plate was read on a Biotek CYTATION™ 5 plate reader. Samples were excited at 330 nm and fluorescent values were collected at 665 nm. Data analysis was performed by subtracting the background value and plotting as percent inhibition, normalized to baseline in the absence of competitor. The values were fit by [Inhibitor] vs. response-Variable slope (four parameters) using GraphPad Prism Version 7.0 and then normalized to aptamer control to obtain an IC₅₀ relative to parent aptamer. Data is presented as log values of relative IC₅₀.

Series [2] concerns the target T1, VEGF-A121. The experiment in a line: competition; TR-FRET. Particulars: tags: glycan-biotinylated for SPR/FRET/AlphaLISA; Acro BioSystems, Biolegend; chain copies: 2 (stated). On the procedure: as §1
Starting at position 6, 2′F-G residues were systematically replaced, one at a time, and the activity of the resultant molecule was assessed by competition TR-FRET, as described in Example 7, against the parent molecule, Aptamer 141.
The source holds these as a separate data set.

Series [3] has as its target T2, VEGF-A165 (Homo sapiens).
T2 chain: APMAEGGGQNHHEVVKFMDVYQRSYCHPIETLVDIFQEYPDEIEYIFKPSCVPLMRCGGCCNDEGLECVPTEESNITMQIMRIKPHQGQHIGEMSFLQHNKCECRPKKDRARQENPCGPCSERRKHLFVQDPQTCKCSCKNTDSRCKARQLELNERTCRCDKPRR
Briefly: SPR; HBD-binding aptamer. Particulars: tags: glycan-biotinylated for SPR/FRET/AlphaLISA; Acro BioSystems, R&D Systems; chain copies: 2 (inferred). On the procedure: (§2) Aptamer 26 was identical in sequence to Aptamer 4.2 but contained a hexylamine linker in place of the C6 disulfide linker at the 5′ terminus. […] Briefly, in the SPR studies, 1.0-2.5 μg/mL of glycan biotinylated VEGF-A₁₆₅, VEGF-A₁₂₁, and VEGF-A₁₁₀ were diluted in HEPES running buffer (10 mM HEPES, 137.5 mM NaCl, 5.7 mM KCl, 1 mM MgCl₂, 1 mM CaCl₂, and 0.05% Tween20; pH 7.4) and immobilized to a streptavidin dextran chip (GE Healthcare Life Sciences) for 1-2 minutes. The chip was then blocked with 0.2 mg/mL biotin in running buffer, followed by 3 cycles of buffer blanks and regenerated with 50 mM NaOH to equilibrate the chip. […] After coating and blocking, samples were screened at 100 nM in duplicate injections at a flow rate of 25 μL/min, with an association time of 3 minutes 20 seconds and a dissociation time of 10 minutes. Regeneration conditions of chips were optimized based on the protein immobilized and effected with either 50 mM NaOH for 30 seconds or 2M guanidine HCl for 2×40 seconds.
(§3) Data was fit to a 1:1 kinetic binding model.

Series [4] addresses T1, VEGF-A121. Briefly: SPR; no binding at highest concentration (500 nM). Particulars: tags: glycan-biotinylated for SPR/FRET/AlphaLISA; Acro BioSystems, Biolegend; chain copies: 2 (stated). How it is done: as §2, §3
A general note: SPR reads the build-up and loss of mass on a sensor chip optically.

Another series has as its target VEGF-A110 (Homo sapiens, UniProt P15692 SEQ:1-110). Briefly: SPR; no binding at highest concentration (500 nM). Particulars: tags: glycan-biotinylated; chain copies: 2 (stated). How it is done:
as §2, §3

The target of series [5] is T2, VEGF-A165. The experiment in a line: cell_activity; partial (~80%) inhibition of KDR phosphorylation; no inhibition of KDR binding in AlphaLISA. Particulars: tags: glycan-biotinylated for SPR/FRET/AlphaLISA; Acro BioSystems, R&D Systems; chain copies: 2 (inferred). How it is done: Briefly, HEK293 cells engineered to stably overexpress KDR were plated overnight in collagen coated 96 well plates at 50 k cells/well. Aptamers in SB1+ (40 mM HEPES, pH 7.5, 125 mM NaCl, 5 mM KCl, 1 mM MgCl₂) were heated to 90° C. for 3 minutes and allowed to cool to room temperature for a minimum of 10 minutes. […] 15 μL of VEGF-A was added to 15 μL titrated aptamer in a polypropylene plate and diluted to 300 μL with TS buffer (10 mM Tris pH 7.5; 100 mM NaCl; 5.7 mM KCl; 1 mM MgCl₂; 1 mM CaCl₂). The aptamer/VEGF-A mixture was incubated at 37° C. for 30 minutes, after which 100 μL was added to the cells for 5 minutes at 37° C. in 5% CO₂. Treatments were aspirated from cells, and cells were lysed with 100 μL cold lysis buffer [20 mM Tris-HCl, pH 7.5, 150 mM NaCl, 1 mM EDTA, 1% Triton X-100, 0.5 mM sodium orthovanadate (freshly prepared), 1 mM PMSF (freshly prepared), lx protease inhibitor cocktail (freshly prepared)] on ice for 10 minutes. […]
To perform the AlphaLISA® assay, 10 μL of cell lysis was transferred to a white low volume 384 well Optiplate (Perkin Elmer). […] The assay plate was sealed and incubated in the dark for approximately 2 hours, then was read on a Biotek CYTATION™ 5 plate reader using the Alpha 384 well optical cube. Percent inhibition was calculated by subtracting TS buffer background from each value and normalizing to VEGF-A only controls. […]

Series [6] addresses T1, VEGF-A121. Briefly: competition; TR-FRET; stem S2 mispaired. Particulars: tags: glycan-biotinylated for SPR/FRET/AlphaLISA; Acro BioSystems, Biolegend; chain copies: 2 (stated). On the procedure:
as §1, with “IC₅₀. […]” for “IC₅₀.”
(In general: TR-FRET usually uses a lanthanide donor and a delayed reading to cut background.)

In series [7] the target is T1, VEGF-A121. The experiment in a line: competition; TR-FRET; stem S3 mispaired. Particulars: tags: glycan-biotinylated for SPR/FRET/AlphaLISA; Acro BioSystems, Biolegend; chain copies: 2 (stated). On the procedure:
as §1, with “IC₅₀. […]” for “IC₅₀.”

Regarding AGGCCGCCUCCGCGCGGAGGGGUUUCAUAUCCCGUUUGGCGGCUU (ssRNA, all G 2'-F; A,C,U 2'-OMe; Sp3 joins the two parts; 5' C6NH2; 3' idT) [Aptamer 66], the binding result in the series with VEGF-A121 [1] is on record as “binds”.

For AGGCCGCCUCCGCGCGGAGGGGUUUCAUUUCCCGUUUGGCGGCUU (ssRNA, all G 2'-F; A,C,U 2'-OMe; Sp3 joins the two parts; 5' C6NH2; 3' idT) [Aptamer 68], in the series with VEGF-A121 [1], the binding signal is > 100 fold worse IC50 vs Aptamer 26.

As for AGGCCGCCUCCGCGCGGAGGGGUUUCAUAUCCCGUUUGGCGGCUU (ssRNA, all G 2'-F; A,C,U 2'-OMe; Sp3 joins the two parts; 5' C6NH2; 3' idT) [Aptamer 67], the binding result in the series with VEGF-A121 [1] was “binds”.

Regarding GCCGACCCGCGCGGAGGGGUUUCAUUACCCCGUUUGUCGGC (ssRNA, all G 2'-F; A,C,U 2'-OMe; Sp3 joins the two parts; 5' C6NH2; 3' idT) [Aptamer 199], in the series with VEGF-A121 [2], the binding signal is ~2 fold better IC50 vs Aptamer 141.

As for CGGAAUCAGUGAAUGCUUAUACAUCCG (ssRNA, 2'-F C and U; 2'-OMe G and A except AA at positions 4-5; 5' C6NH2; 3' idT) [Aptamer 7], the dissociation constant (Kd) with VEGF-A165 [3] was found to be 0.6 nM. The binding result with VEGF-A121 [4] and with VEGF-A110 was “no binding” each time. The half-inhibitory concentration (IC50) in the series with VEGF-A165 [5] turned out to be 2.2 nM.

For AGGCCGCCUUUGCGCUUAGGGGUUUCAUUAUCCCGUUUGGCGGCUU (ssRNA, all G 2'-F; A,C,U 2'-OMe; 5' C6NH2; 3' idT) [Aptamer 182], the binding signal with VEGF-A121 [6] was > 100 fold worse IC50 vs Aptamer 26.

Take AGGCCGCCUCCGCGCCCAGGGGUUUCAUUAUCCCGUUUGGCGGCUU (ssRNA, all G 2'-F; A,C,U 2'-OMe; 5' C6NH2; 3' idT) [Aptamer 183]: the binding signal with VEGF-A121 [6] was > 100 fold worse IC50 vs Aptamer 26.

B1: Aptamer 196 (ssRNA)
RNA: AGGCCGACCCGCGCGGAGGGGUUUCAUUAUCCCGUUUGUCGGCUU
modifications: G 2'-F except G22 2'-OMe; A,C,U 2'-OMe; Sp3 joins the two parts; 5' C6NH2; 3' idT
On to B1, for which the binding signal with VEGF-A121 [2] is ~2 fold better IC50 vs Aptamer 141.

B2: Aptamer 198 (ssRNA)
RNA: B1 RNA
modifications: G 2'-F except G39 2'-OMe; A,C,U 2'-OMe; Sp3 joins the two parts; 5' C6NH2; 3' idT
Regarding B2, the binding signal with VEGF-A121 [2] was ~2 fold better IC50 vs Aptamer 141.

As to AGGCCGCCUCCGCGCGGAGCCGUUUCAUUAUCCCGUUUGGCGGCUU (ssRNA, all G 2'-F; A,C,U 2'-OMe; 5' C6NH2; 3' idT) [Aptamer 184], in the series with VEGF-A121 [7], the binding signal is > 100 fold worse IC50 vs Aptamer 26.

Turning to AGGCCGCCUCCGCGCGGAGGGGUUUCAUUAUAACGUUUGGCGGCUU (ssRNA, all G 2'-F; A,C,U 2'-OMe; 5' C6NH2; 3' idT) [Aptamer 185], the binding signal in the series with VEGF-A121 [7] was > 100 fold worse IC50 vs Aptamer 26.

Usually Kd stands for the concentration at which binding is half-saturated. A higher Kd goes with lower affinity. As usually defined, the IC50 is the point on the concentration scale where inhibition reaches its midpoint.
